Reference: patent US20190083587A1 (Novo Nordisk, published 2019)

Assays:
[1] = target: T1, human TLT-1 on activated platelets (human, UniProt Q86YW5 16-311); assay: cell-based or functional assay
T1 sequence: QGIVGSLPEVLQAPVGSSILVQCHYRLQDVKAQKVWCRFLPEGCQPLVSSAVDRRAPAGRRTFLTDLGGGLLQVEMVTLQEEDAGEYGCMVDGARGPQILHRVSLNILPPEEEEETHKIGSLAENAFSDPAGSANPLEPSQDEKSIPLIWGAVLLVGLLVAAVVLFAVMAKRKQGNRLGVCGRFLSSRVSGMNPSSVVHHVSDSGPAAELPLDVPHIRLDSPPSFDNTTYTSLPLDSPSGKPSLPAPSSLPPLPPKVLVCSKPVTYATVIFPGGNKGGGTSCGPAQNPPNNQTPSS

[2] = target: T2, hTLT-1 ECD-His (human, UniProt Q86YW5 16-162); assay: SPR Biacore, mAb immobilised directly, TLT-1 as analyte
T2 construct: Extracellular domain of human TLT-1 with C-terminal His-6 tag; the range 16-168 is computed from these; also called TLT-1-His; His tagged human TLT1
T2 sequence: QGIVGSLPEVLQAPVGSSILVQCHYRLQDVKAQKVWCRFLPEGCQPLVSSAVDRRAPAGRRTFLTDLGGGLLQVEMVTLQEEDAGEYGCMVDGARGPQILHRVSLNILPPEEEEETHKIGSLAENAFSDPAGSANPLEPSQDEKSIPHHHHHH
Procedure: Method: The mAbs of interest were either immobilized directly to a CM5 chip or by capture via a human Fc capture mAb immobilized to a CM5 chip, while TLT-1-His was immobilized by capture via an anti-His mAb CM5 chip for analysis of Fabs.
mAb direct capture: The TLT-1 mAbs were immobilised to a level of approx 500-1000 RU on a CM5 chip (50 μg/ml diluted in Na-acetate, pH 4.0) using the standard procedure recommended by the supplier. Two-fold dilutions of TLT-1 from 200 nM to 0.2 nM were tested for binding to the mAbs. Running and dilution buffer: 10 mM HEPES, 150 mM, 0.005% p20, pH 7.4. Regeneration was obtained by 10 mM Glycine, pH 1.7. mAb capture via human Fc mAb: Human Fc mAb was immobilised to approx 10.000 RU. The mAb of interest was added (approx 100 nM). Two-fold dilutions of TLT-1 from 200 nM to 0.2 nM were tested. Running and dilution buffer: 10 mM HEPES, 150 mM, 0.005% p20, pH 7.4. Regeneration was obtained in 3 M MgCl₂.

[3] = target: T3, hTLT-1 ECD-HPC4 F54A (human, UniProt Q86YW5 16-162); assay: SPR ProteOn, mAb captured by anti-hFc, 100 nM mutant, signal 10 s after injection
T3 construct: Built as m17; also called Ala mutant 12
T3 chain: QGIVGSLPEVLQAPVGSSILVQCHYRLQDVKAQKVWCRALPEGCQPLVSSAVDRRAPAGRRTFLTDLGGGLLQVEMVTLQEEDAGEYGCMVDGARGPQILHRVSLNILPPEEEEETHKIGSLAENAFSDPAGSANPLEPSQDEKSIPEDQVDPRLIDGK
Procedure: (§1) Each antibody was diluted in 10 mM sodium acetate pH 5.0 to a concentration of 50 μg/ml, and was immobilized to an individual flow cell at 30 μl/min for 240 s. The antibodies were immobilized to flow cells A1-A6 (horizontal direction). After immobilization, the active sites on the flow cell were blocked with 1 M ethanolamine. The final immobilization level of capture antibody typically ranged from approximately 9,000 to 10,000 RU in one experiment. Capture of the anti-TLT-1 antibodies mAb0023, mAb0051, mAb0061 and mAb0062 was conducted by diluting to 0.5 μg/ml into HBS-EP buffer (10 mM HEPES, 150 mM NaCl, 3 mM EDTA, 0.05% surfactant P20, pH 7.4) and injected at 30 μl/min for 60 s in vertical direction, creating interspot reference points with only anti-human Fc antibodies.
(§2) The final capture level of test antibodies typically ranged from approximately 200 to 300 RU in one experiment. Binding of wt or Ala mutant hTLT-1 ECD-HPC4 protein was conducted by injecting over parallel flow cells in horizontal direction to allow for comparative analyses of binding to different captured anti-TLT-1 antibodies relative to binding to the interspot references. Each hTLT-1 ECD-HPC4 protein was diluted to 100 nM, based on the calculated average Mw, into HBS-EP buffer and injected at 30 μl/min for 240 s. The GLM chip was regenerated after each injection cycle of analyte via one 18 s injection of 1 M Formic acid followed by a 18s injection of 50 mM NaOH at 100 μl/min. This regeneration step removed the anti-TLT-1 antibody and any bound TLT-1 from the immobilized capture antibody surface, and allowed for the subsequent binding of the next test sample pair.
(§3) Data analysis was performed using the ProteOn Manager™ Software. No significant non-specific binding to the interspot control surfaces was observed. Binding curves were processed by double referencing (subtraction of interspot control surface signals as well as blank buffer injections over captured anti-TLT-1 antibodies). This allowed correction for instrument noise, bulk shift and drift during sample injections. Binding signal at 10 s after stop of analyte injection was normalized to level of captured anti-TLT-1 antibody and presented as binding relative to wt hTLT-1 ECD-HPC4 protein.

[4] = target: T4, hTLT-1 ECD-HPC4 M91A (human, UniProt Q86YW5 16-162); assay: as above
T4 construct: Built as m17; also called Ala mutant 24
T4 chain: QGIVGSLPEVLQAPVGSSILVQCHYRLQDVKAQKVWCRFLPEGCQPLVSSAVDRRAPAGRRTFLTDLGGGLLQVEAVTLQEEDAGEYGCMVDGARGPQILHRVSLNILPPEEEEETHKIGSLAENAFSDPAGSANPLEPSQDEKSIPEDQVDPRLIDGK
Procedure: as §1, §2, §3

[5] = target: T5, hTLT-1 ECD-HPC4 S119A (human, UniProt Q86YW5 16-162); assay: as above
T5 construct: Built as m17; also called Ala mutant 33
T5 chain: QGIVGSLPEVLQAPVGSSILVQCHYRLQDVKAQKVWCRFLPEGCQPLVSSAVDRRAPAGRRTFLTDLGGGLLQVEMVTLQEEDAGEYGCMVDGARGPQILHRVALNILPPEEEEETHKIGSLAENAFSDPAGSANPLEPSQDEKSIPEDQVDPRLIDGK
Procedure: as §1, §2, §3

[6] = target: T6, hTLT-1 ECD-HPC4 R117A (human, UniProt Q86YW5 16-162); assay: as above
T6 construct: Built as m17; also called Ala mutant 32
T6 chain: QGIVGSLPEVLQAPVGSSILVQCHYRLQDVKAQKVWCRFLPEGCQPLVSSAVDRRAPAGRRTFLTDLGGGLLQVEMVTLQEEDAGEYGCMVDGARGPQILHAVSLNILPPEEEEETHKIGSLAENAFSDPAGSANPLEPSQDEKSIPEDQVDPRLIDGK
Procedure: as §1, §2, §3

Binder	peak thrombin generation at 25 nM, haemophilia A like platelet rich plasma [1]	Kd [2] [nM]	koff [2] [s⁻¹]	kon [2] [M⁻¹ s⁻¹]	binding relative to wt hTLT-1 ECD-HPC4 [3]	binding relative to wt hTLT-1 ECD-HPC4 [4]	binding relative to wt hTLT-1 ECD-HPC4 [5]	binding relative to wt hTLT-1 ECD-HPC4 [6]
FVIIa-Fab1001 (other, linker attached as sialic acid derivative to an N-linked glycan (ST3Gal-III); gamma-carboxylated Glu in the Gla domain; unpaired hinge Cys (YGPPC) coupled by maleimide to the 3 kDa PEG linker) heavy: EVKLLESGGGLVQPGGSLKLSCAASGFDFSRYWMTWVRQAPGKGLEWIGEINPDSSTINYNPSLKDKFIISRDNAKNTLYLQMSEVRSEDTALYYCASGVFTSWGQGTLVTVSAASTKGPSVFPLAPCSRSTSESTAALGCLVKDYFPEPVTVSWNSGALTSGVHTFPAVLQSSGLYSLSSVVTVPSSSLGTKTYTCNVDHKPSNTKVDKRVESKYGPPC light: DVVMTQTPLSLPVSLGDQASISCRSSQSLVHRNGNTYFHWALQKPGQSPKLLIYKVSNRFSGVPDRFSGSGSGTDFTLKISRVEAEDLGVYFCSQSTHVPYTFGGGTKLEIKRTVAAPSVFIFPPSDEQLKSGTASVVCLLNNFYPREAKVQWKVDNALQSGNSQESVTEQDSKDSTYSLSSTLTLSKADYEKHKVYACEVTHQGLSSPVTKSFNRGECEDQVDPRLIDGK ANAFLEELRPGSLERECKEEQCSFEEAREIFKDAERTKLFWISYSDGDQCASSPCQNGGSCKDQLQSYICFCLPAFEGRNCETHKDDQLICVNENGGCEQYCSDHTGTKRSCRCHEGYSLLADGVSCTPTVEYPCGKIPILEKRNASKPQGRIVGGKVCPKGECPWQVLLLVNGAQLCGGTLINTIWVVSAAHCFDKIKNWRNLIAVLGEHDLSEHDGDEQSRRVAQVIIPSTYVPGTTNHDIALLRLHQPVVLTDHVVPLCLPERTFSERTLAFVRFSLVSGWGQLLDRGATALELMVLNVPRLMTQDCLQQSRKVGDSPNITEYMFCAGYSDGSKDSCKGDSGGPHATHYRGTWYLTGIVSWGQGCATVGHFGVYTRVSQYIEWLQKLMRSEPRPGVLLRAPFP	~4 fold compared to rFVIIa (25 nM)							
FVIIa-Fab1029 (other, linker attached as sialic acid derivative to an N-linked glycan (ST3Gal-III); gamma-carboxylated Glu in the Gla domain; unpaired hinge Cys (YGPPC) coupled by maleimide to the 10 kDa PEG linker) heavy: EVKLLESGGGLVQPGGSLKLSCAASGFDFSRYWMTWVRQAPGKGLEWIGEINPDSSTINYNPSLKDKFIISRDNAKNTLYLQMSEVRSEDTALYYCASGVFTSWGQGTLVTVSAASTKGPSVFPLAPCSRSTSESTAALGCLVKDYFPEPVTVSWNSGALTSGVHTFPAVLQSSGLYSLSSVVTVPSSSLGTKTYTCNVDHKPSNTKVDKRVESKYGPPC light: DVVMTQTPLSLPVSLGDQASISCRSSQSLVHRNGNTYFHWALQKPGQSPKLLIYKVSNRFSGVPDRFSGSGSGTDFTLKISRVEAEDLGVYFCSQSTHVPYTFGGGTKLEIKRTVAAPSVFIFPPSDEQLKSGTASVVCLLNNFYPREAKVQWKVDNALQSGNSQESVTEQDSKDSTYSLSSTLTLSKADYEKHKVYACEVTHQGLSSPVTKSFNRGECEDQVDPRLIDGK ANAFLEELRPGSLERECKEEQCSFEEAREIFKDAERTKLFWISYSDGDQCASSPCQNGGSCKDQLQSYICFCLPAFEGRNCETHKDDQLICVNENGGCEQYCSDHTGTKRSCRCHEGYSLLADGVSCTPTVEYPCGKIPILEKRNASKPQGRIVGGKVCPKGECPWQVLLLVNGAQLCGGTLINTIWVVSAAHCFDKIKNWRNLIAVLGEHDLSEHDGDEQSRRVAQVIIPSTYVPGTTNHDIALLRLHQPVVLTDHVVPLCLPERTFSERTLAFVRFSLVSGWGQLLDRGATALELMVLNVPRLMTQDCLQQSRKVGDSPNITEYMFCAGYSDGSKDSCKGDSGGPHATHYRGTWYLTGIVSWGQGCATVGHFGVYTRVSQYIEWLQKLMRSEPRPGVLLRAPFP	~2 fold compared to rFVIIa (25 nM)							
mAb0051 (antibody, V domains shown, Mouse VH/VL, human IgG4 / kappa; The entries seem to include signal peptides; also called antiTLT-1 0051mab) VH: QVQLEQSGAELVRPGVSVKISCKGSGYTFTDYSMHWVKQSHAKSLEWIGVISTYYGDVRYNQKFKGKATMTVDKSSSTAYMALARLTSEDSAIYYCARAPMITTGAWFAYWGQGTLVTVSA VL: SIVMTQTPKFLLVSAGDRVTITCKASQSVSNDVAWYQQKPGQSPKLLINYASSRYTGIPDRFTGSGYGTDFTFTISTVQAEDLAVYFCQQDYSSPYTFGGGTKLEIER		19.3	0.00472	245000	< 0.4 fraction of wt	< 0.2 fraction of wt	< 0.6 fraction of wt	< 0.2 fraction of wt
